Laboratory results taken from article PMC9482650, “Quantitative fragmentomics allow affinity mapping of interactomes” (Nature Communications, 2022).

Experiments:
Assay in all cases: holdup assay
Set-up in all cases: key: below the threshold = too weak to quantify, mostly under pKd 3.1 to 4
[1] = molecular target: T1, DFNB31_3, Q9P202
T1 sequence (Q9P202 811-907, limits assumed, looked up): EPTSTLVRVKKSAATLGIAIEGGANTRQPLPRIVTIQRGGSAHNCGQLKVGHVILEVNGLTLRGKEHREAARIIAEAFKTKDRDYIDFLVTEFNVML

[2] = molecular target: DLG4_2, P78352
[3] = molecular target: DLG4_3, P78352
[4] = molecular target: T2, DVL3, Q92997
T2 sequence (Q92997 244-331, limits assumed, looked up): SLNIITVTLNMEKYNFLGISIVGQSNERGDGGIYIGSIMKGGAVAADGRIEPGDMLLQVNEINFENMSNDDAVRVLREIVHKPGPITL

[5] = molecular target: GIPC2, Q8TF65
[6] = molecular target: GORASP1, Q9BQQ3
[7] = molecular target: GORASP2, Q9H8Y8
[8] = molecular target: T3, GRIP1_2, Q9Y3R0
T3 sequence (Q9Y3R0 145-248, limits assumed, looked up): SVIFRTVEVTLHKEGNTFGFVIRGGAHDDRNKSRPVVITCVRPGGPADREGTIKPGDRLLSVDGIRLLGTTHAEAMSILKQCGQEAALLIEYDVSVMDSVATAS

[9] = molecular target: T4, GRIP1_3, Q9Y3R0
T4 sequence (Q9Y3R0 247-346, limits assumed, looked up): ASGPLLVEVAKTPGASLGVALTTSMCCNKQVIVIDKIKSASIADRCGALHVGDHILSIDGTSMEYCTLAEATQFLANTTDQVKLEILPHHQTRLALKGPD

[10] = molecular target: T5, GRIP1_5, Q9Y3R0
T5 sequence (Q9Y3R0 568-668, limits assumed, looked up): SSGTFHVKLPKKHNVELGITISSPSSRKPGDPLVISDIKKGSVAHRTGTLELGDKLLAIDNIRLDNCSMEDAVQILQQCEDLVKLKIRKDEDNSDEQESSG

[11] = molecular target: HTRA1, Q92743
[12] = molecular target: Inadl_10, Q8NI35
[13] = molecular target: T6, LIN7A, O14910
T6 sequence (O14910 103-200, limits assumed, looked up): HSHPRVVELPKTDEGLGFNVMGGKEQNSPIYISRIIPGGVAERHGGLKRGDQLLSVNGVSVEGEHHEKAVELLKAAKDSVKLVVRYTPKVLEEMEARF

[14] = molecular target: LNX1_1, Q8TBB1
[15] = molecular target: LNX1_3, Q8TBB1
[16] = molecular target: MAGI1_1, Q96QZ7
[17] = molecular target: MAST2, Q6P0Q8
[18] = molecular target: NHERF4_2, Q86UT5
[19] = molecular target: NHERF4_4, Q86UT5
[20] = molecular target: PDLIM1, O00151
[21] = molecular target: T7, PDZRN3_1, Q9UPQ7
T7 sequence (Q9UPQ7 244-349, limits assumed, looked up): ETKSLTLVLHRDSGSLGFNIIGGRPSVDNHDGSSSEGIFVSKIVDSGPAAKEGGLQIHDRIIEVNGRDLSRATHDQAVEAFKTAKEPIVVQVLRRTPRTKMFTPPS

[22] = molecular target: PDZRN4_1, Q6ZMN7
[23] = molecular target: T8, RADIL, Q96JH8
T8 sequence (Q96JH8 971-1071, limits assumed, looked up): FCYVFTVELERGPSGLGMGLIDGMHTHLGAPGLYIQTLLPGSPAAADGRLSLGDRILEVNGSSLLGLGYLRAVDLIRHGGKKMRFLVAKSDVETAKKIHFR

[24] = molecular target: T9, RAPGEF6, Q8TEU7
T9 sequence (Q8TEU7 525-625, limits assumed, looked up): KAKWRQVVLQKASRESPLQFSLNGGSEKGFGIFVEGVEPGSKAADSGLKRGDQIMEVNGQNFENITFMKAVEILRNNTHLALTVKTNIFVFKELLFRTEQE

[25] = molecular target: T10, RHPN1, Q8TCX5
T10 sequence (Q8TCX5 508-602, limits assumed, looked up): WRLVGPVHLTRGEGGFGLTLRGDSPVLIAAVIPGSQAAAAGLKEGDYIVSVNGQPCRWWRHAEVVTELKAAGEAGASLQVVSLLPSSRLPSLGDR

[26] = molecular target: SCRIB_1, Q14160
[27] = molecular target: TJP2_1, Q9UDY2
[28] = plain residues with an end cap or a label only (N-terminal biotin on a linker: ado-ado)
[29] = plain residues with an end cap or a label only (N-terminal biotin on a linker: (peg)3)

Sequence of NHERF4_2, Q86UT5 (Q86UT5 220-308): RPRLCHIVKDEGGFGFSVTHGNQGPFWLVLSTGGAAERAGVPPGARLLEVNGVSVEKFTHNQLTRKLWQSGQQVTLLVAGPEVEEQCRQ
Sequence of TJP2_1, Q9UDY2 (Q9UDY2 24-128): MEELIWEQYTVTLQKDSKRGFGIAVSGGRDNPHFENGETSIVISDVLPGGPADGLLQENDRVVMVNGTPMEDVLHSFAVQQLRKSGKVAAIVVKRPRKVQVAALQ
Sequence of DLG4_3, P78352 (P78352 306-403): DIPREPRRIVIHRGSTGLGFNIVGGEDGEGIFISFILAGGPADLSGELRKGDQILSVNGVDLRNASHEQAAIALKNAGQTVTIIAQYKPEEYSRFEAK
Sequence of Inadl_10, Q8NI35 (Q8NI35 1673-1763): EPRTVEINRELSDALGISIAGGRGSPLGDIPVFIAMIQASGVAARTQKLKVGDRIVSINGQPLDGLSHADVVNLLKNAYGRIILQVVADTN
Sequence of LNX1_1, Q8TBB1 (Q8TBB1 261-371): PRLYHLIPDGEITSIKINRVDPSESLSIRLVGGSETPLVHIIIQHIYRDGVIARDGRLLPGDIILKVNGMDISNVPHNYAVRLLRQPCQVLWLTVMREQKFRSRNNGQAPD
Sequence of HTRA1, Q92743 (Q92743 360-477): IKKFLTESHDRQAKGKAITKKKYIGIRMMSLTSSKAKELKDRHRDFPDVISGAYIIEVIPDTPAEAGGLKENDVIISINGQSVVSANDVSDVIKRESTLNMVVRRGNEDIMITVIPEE
Sequence of DLG4_2, P78352 (P78352 155-259): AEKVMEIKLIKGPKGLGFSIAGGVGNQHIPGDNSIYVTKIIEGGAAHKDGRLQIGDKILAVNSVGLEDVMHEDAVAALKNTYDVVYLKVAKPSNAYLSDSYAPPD
Sequence of MAGI1_1, Q96QZ7 (Q96QZ7 1-106): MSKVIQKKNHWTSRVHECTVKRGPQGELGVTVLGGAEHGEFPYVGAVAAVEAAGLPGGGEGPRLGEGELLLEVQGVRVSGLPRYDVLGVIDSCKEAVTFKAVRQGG
Sequence of SCRIB_1, Q14160 (Q14160 718-814): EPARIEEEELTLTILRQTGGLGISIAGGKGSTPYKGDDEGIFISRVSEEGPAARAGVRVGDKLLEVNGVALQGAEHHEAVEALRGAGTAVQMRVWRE
Sequence of NHERF4_4, Q86UT5 (Q86UT5 464-550): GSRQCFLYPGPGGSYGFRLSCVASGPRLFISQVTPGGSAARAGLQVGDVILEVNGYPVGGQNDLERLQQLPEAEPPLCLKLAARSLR
Sequence of PDLIM1, O00151 (O00151 1-87): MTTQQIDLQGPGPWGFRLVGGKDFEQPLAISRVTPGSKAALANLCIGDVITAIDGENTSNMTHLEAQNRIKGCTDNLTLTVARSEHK
Sequence of GORASP1, Q9BQQ3 (Q9BQQ3 1-208): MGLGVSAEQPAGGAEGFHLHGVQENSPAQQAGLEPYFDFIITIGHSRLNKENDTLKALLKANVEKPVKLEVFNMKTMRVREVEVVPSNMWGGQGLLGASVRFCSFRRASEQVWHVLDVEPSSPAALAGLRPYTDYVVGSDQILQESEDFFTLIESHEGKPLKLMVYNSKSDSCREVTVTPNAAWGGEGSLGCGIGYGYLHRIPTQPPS
Sequence of PDZRN4_1, Q6ZMN7 (Q6ZMN7 213-318): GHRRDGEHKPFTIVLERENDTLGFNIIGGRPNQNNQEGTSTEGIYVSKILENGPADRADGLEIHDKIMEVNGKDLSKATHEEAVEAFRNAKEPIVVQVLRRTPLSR
Sequence of GIPC2, Q8TF65 (Q8TF65 112-203): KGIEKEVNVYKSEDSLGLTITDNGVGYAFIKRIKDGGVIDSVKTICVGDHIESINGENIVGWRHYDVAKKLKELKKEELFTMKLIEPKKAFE
Sequence of LNX1_3, Q8TBB1 (Q8TBB1 500-596): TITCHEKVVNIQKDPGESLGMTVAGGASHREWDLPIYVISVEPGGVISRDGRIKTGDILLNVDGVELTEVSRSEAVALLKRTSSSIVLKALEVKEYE
Sequence of MAST2, Q6P0Q8 (Q6P0Q8 1099-1202): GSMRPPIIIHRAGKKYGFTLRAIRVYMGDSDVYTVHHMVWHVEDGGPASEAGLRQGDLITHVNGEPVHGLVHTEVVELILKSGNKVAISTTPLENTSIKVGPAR

Binder: PKRSFIESNV [TANC1, Q9C0D5]
- pKd [1, 28]: below the threshold
- pKd [2, 28]: 5.04
- pKd [3, 28]: 4.27
- pKd [4, 28]: below the threshold
- pKd [5, 28]: 3.83
- pKd [6, 28]: below the threshold
- pKd [7, 28]: 4.06
- pKd [8, 28]: below the threshold
- pKd [9, 28]: below the threshold
- pKd [10, 28]: below the threshold
- pKd [11, 28]: below the threshold
- pKd [12, 28]: below the threshold
- pKd [13, 28]: 3.49
- pKd [14, 28]: 4.08
- pKd [15, 28]: below the threshold
- pKd [16, 28]: below the threshold
- pKd [17, 28]: 5.2
- pKd [18, 28]: below the threshold
- pKd [19, 28]: 3.83
- pKd [20, 28]: below the threshold
- pKd [21, 28]: 3.87
- pKd [22, 28]: 3.82
- pKd [23, 28]: 3.67
- pKd [24, 28]: below the threshold
- pKd [25, 28]: 4.38
- pKd [26, 28]: 5.2
- pKd [27, 28]: below the threshold

Binder: NLNSSEGVPDLLV [SARS-CoV-E, P59637]
- pKd [1, 29]: below the threshold
- pKd [2, 29]: below the threshold
- pKd [3, 29]: below the threshold
- pKd [4, 29]: below the threshold
- pKd [5, 29]: below the threshold
- pKd [6, 29]: below the threshold
- pKd [7, 29]: below the threshold
- pKd [8, 29]: below the threshold
- pKd [9, 29]: below the threshold
- pKd [10, 29]: below the threshold
- pKd [11, 29]: 4.57
- pKd [12, 29]: below the threshold
- pKd [13, 29]: below the threshold
- pKd [14, 29]: below the threshold
- pKd [15, 29]: below the threshold
- pKd [16, 29]: below the threshold
- pKd [17, 29]: below the threshold
- pKd [18, 29]: below the threshold
- pKd [19, 29]: below the threshold
- pKd [20, 29]: below the threshold
- pKd [21, 29]: below the threshold
- pKd [22, 29]: below the threshold
- pKd [23, 29]: below the threshold
- pKd [24, 29]: below the threshold
- pKd [25, 29]: below the threshold
- pKd [26, 29]: below the threshold
- pKd [27, 29]: below the threshold

Binder: DDEDRLVIEI [ZNF831, Q5JPB2]
- pKd [1, 28]: 4.12
- pKd [2, 28]: below the threshold
- pKd [3, 28]: below the threshold
- pKd [4, 28]: below the threshold
- pKd [5, 28]: below the threshold
- pKd [6, 28]: 4.12
- pKd [7, 28]: 4.72
- pKd [8, 28]: below the threshold
- pKd [9, 28]: below the threshold
- pKd [10, 28]: below the threshold
- pKd [11, 28]: 5.7
- pKd [12, 28]: below the threshold
- pKd [13, 28]: below the threshold
- pKd [14, 28]: below the threshold
- pKd [15, 28]: below the threshold
- pKd [16, 28]: below the threshold
- pKd [17, 28]: 4.08
- pKd [18, 28]: below the threshold
- pKd [19, 28]: 3.66
- pKd [20, 28]: below the threshold
- pKd [21, 28]: below the threshold
- pKd [22, 28]: below the threshold
- pKd [23, 28]: 4.02
- pKd [24, 28]: below the threshold
- pKd [25, 28]: 3.53
- pKd [26, 28]: below the threshold
- pKd [27, 28]: below the threshold

Binder: QKNRKAQEDL [CES3, Q6UWW8]
- pKd [1, 28]: 4.05
- pKd [2, 28]: below the threshold
- pKd [3, 28]: below the threshold
- pKd [4, 28]: below the threshold
- pKd [5, 28]: below the threshold
- pKd [6, 28]: below the threshold
- pKd [7, 28]: below the threshold
- pKd [8, 28]: below the threshold
- pKd [9, 28]: below the threshold
- pKd [10, 28]: below the threshold
- pKd [11, 28]: below the threshold
- pKd [12, 28]: below the threshold
- pKd [13, 28]: below the threshold
- pKd [14, 28]: below the threshold
- pKd [15, 28]: below the threshold
- pKd [16, 28]: below the threshold
- pKd [17, 28]: below the threshold
- pKd [18, 28]: below the threshold
- pKd [19, 28]: below the threshold
- pKd [20, 28]: below the threshold
- pKd [21, 28]: below the threshold
- pKd [22, 28]: below the threshold
- pKd [23, 28]: below the threshold
- pKd [24, 28]: below the threshold
- pKd [25, 28]: below the threshold
- pKd [26, 28]: below the threshold
- pKd [27, 28]: below the threshold
